Our source for the Peptide exchange values is patent US20160279215A1, “NOVEL PEPTIDES AND COMBINATION OF PEPTIDES FOR USE IN IMMUNOTHERAPY AGAINST VARIOUS TUMORS” (immatics biotechnologies GmbH, priority 2015, published 2016).

In this test the target is T1, HLA-A*02:01 (Homo sapiens, UniProt P04439, D140Y/D185E/D98H/E176V/E277Q/G131W/G231S/I119V/I121R/I166T/I218V/L300P/L318F/N151K/N90K/P208A/P217A/Q86G/Q94H/R138H/R169H/T345S).
T1 construct: made in house
Briefly: MHC binding assay: UV-ligand exchange with β2m ELISA (peptide exchange yield). The note with it: binding to HLA-A*02:01 evaluated by peptide exchange yield (UV-ligand exchange, β2m ELISA). An excerpt:
Candidate peptides for T cell based therapies according to the present invention were further tested for their MHC binding capacity (affinity). The individual peptide-MHC complexes were produced by UV-ligand exchange, where a UV-sensitive peptide is cleaved upon UV-irradiation, and exchanged with the peptide of interest as analyzed. Only peptide candidates that can effectively bind and stabilize the peptide-receptive MHC molecules prevent dissociation of the MHC complexes. To determine the yield of the exchange reaction, an ELISA was performed based on the detection of the light chain (β2m) of stabilized MHC complexes. The assay was performed as generally described in Rodenko et al. (Rodenko et al., 2006).
96 well MAXISorp plates (NUNC) were coated over night with 2 ug/ml streptavidin in PBS at room temperature, washed 4× and blocked for 1 h at 37° C. in 2% BSA containing blocking buffer. Refolded HLA-A*02:01/MLA-001 monomers served as standards, covering the range of 15-500 ng/ml. Peptide-MHC monomers of the UV-exchange reaction were diluted 100 fold in blocking buffer. Samples were incubated for 1 h at 37° C., washed four times, incubated with 2 ug/ml HRP conjugated anti-β2m for 1 h at 37° C., washed again and detected with TMB solution that is stopped with […]. Absorption was measured at 450 nm. Candidate peptides that show a high exchange yield (preferably higher than 50%, most preferred higher than 75%) are generally preferred for a generation and production of antibodies or fragments thereof, and/or T cell receptors or fragments thereof, as they show sufficient avidity to the MHC molecules and prevent dissociation of the MHC complexes.
(In an ELISA, binding on a coated surface is turned into a signal by an enzyme label.)
In the case of “1 (KLQEKIQEL; listed as Homo sapiens) [compound 1]”, the Peptide exchange result was “++++ (≧75% = ++++)”.

Turning to “3 (RVIDDSLVVGV; listed as Homo sapiens) [compound 3]”, the Peptide exchange entry is “+++ (≧50 = +++)”.

“5 (GLVDIMVHL; listed as Homo sapiens) [compound 5]”: the Peptide exchange result is on record as “+++ (≧50 = +++)”.

“6 (FLNAIETAL; listed as Homo sapiens) [compound 6]”: the Peptide exchange result is listed as “++++ (≧75% = ++++)”.

On to “10 (QLIEKNWLL; listed as Homo sapiens) [compound 10]”, for which the Peptide exchange entry is listed as “+++ (≧50 = +++)”.

Consider “12 (RLLDPKTIFL; listed as Homo sapiens) [compound 12]”, for which the Peptide exchange entry was “+++ (≧50 = +++)”.

For the substance “13 (RLHDENILL; listed as Homo sapiens) [compound 13]”, the Peptide exchange result is reported as “+++ (≧50 = +++)”.

As for “16 (SLADLSLLL; listed as Homo sapiens) [compound 16]”, the Peptide exchange entry is listed as “+++ (≧50 = +++)”.

On to “18 (KTASINQNV; listed as Homo sapiens) [compound 18]”, for which the Peptide exchange result is on record as “++ (≧20% = ++)”.

Consider “19 (KVFELDLVTL; listed as Homo sapiens) [compound 19]”, for which the Peptide exchange result is recorded as “++ (≧20% = ++)”.

For the substance “20 (ALVEKGEFAL; listed as Homo sapiens) [compound 20]”, the Peptide exchange result is on record as “++ (≧20% = ++)”.

On to “21 (YLMDDFSSL; listed as Homo sapiens) [compound 21]”, for which the Peptide exchange result is recorded as “+++ (≧50 = +++)”.

In the case of “22 (LMYPYIYHV; listed as Homo sapiens) [compound 22]”, the Peptide exchange result is “+++ (≧50 = +++)”.

Consider “23 (ALLSPLSLA; listed as Homo sapiens) [compound 23]”, for which the Peptide exchange result is listed as “+++ (≧50 = +++)”.

Take “24 (KVWSDVTPL; listed as Homo sapiens) [compound 24]”: the Peptide exchange result is “+++ (≧50 = +++)”.

With “25 (LLWGHPRVALA; listed as Homo sapiens) [compound 25]”, the Peptide exchange entry was “+++ (≧50 = +++)”.

As for “26 (VLDGKVAVV; listed as Homo sapiens) [compound 26]”, the Peptide exchange result is reported as “+++ (≧50 = +++)”.

With “28 (IKVTDPQLLEL; listed as Homo sapiens) [compound 28]”, the Peptide exchange entry is “++ (≧20% = ++)”.

As to “30 (IITEVITRL; listed as Homo sapiens) [compound 30]”, the Peptide exchange entry is given as “+++ (≧50 = +++)”.

With “31 (GLLETTGLLAT; listed as Homo sapiens) [compound 31]”, the Peptide exchange entry is “+++ (≧50 = +++)”.

For “33 (TLDRNSLYV; listed as Homo sapiens) [compound 33]”, the Peptide exchange result is “++ (≧20% = ++)”.

With “34 (TLNTLDINL; listed as Homo sapiens) [compound 34]”, the Peptide exchange entry is listed as “+++ (≧50 = +++)”.

In the case of “36 (TVLQELINV; listed as Homo sapiens) [compound 36]”, the Peptide exchange result is recorded as “+++ (≧50 = +++)”.

On to “37 (QIVELIEKI; listed as Homo sapiens) [compound 37]”, for which the Peptide exchange entry is reported as “++ (≧20% = ++)”.

Regarding “38 (VLQQESNFL; listed as Homo sapiens) [compound 38]”, the Peptide exchange entry is given as “++ (≧20% = ++)”.

Take “39 (YLEDGFAYV; listed as Homo sapiens) [compound 39]”: the Peptide exchange entry is given as “+++ (≧50 = +++)”.

As to “40 (KIWEELSVLEV; listed as Homo sapiens) [compound 40]”, the Peptide exchange result was “+++ (≧50 = +++)”.

As to “41 (IVTEIISEI; listed as Homo sapiens) [compound 41]”, the Peptide exchange entry is recorded as “+++ (≧50 = +++)”.

Turning to “42 (KQMSISTGL; listed as Homo sapiens) [compound 42]”, the Peptide exchange result is reported as “++ (≧20% = ++)”.

For “44 (AVFNLVHVV; listed as Homo sapiens) [compound 44]”, the Peptide exchange result is listed as “+++ (≧50 = +++)”.

As for “45 (FLPVSVVYV; listed as Homo sapiens) [compound 45]”, the Peptide exchange result is given as “+++ (≧50 = +++)”.

For the substance “47 (GLNGFNVLL; listed as Homo sapiens) [compound 47]”, the Peptide exchange result is “+++ (≧50 = +++)”.

For the substance “49 (KLIGNIHGNEV; listed as Homo sapiens) [compound 49]”, the Peptide exchange result is “++ (≧20% = ++)”.

For the substance “51 (LDSEALLTL; listed as Homo sapiens) [compound 51]”, the Peptide exchange result is on record as “++ (≧20% = ++)”.

With “52 (TIGIPFPNV; listed as Homo sapiens) [compound 52]”, the Peptide exchange entry is recorded as “++ (≧20% = ++)”.

On to “53 (AQHLSTLLL; listed as Homo sapiens) [compound 53]”, for which the Peptide exchange entry is on record as “+ (≧10% = +)”.

In the case of “54 (YLVPGLVAA; listed as Homo sapiens) [compound 54]”, the Peptide exchange result is “+++ (≧50 = +++)”.

With “55 (HLFDKIIKI; listed as Homo sapiens) [compound 55]”, the Peptide exchange entry is “+++ (≧50 = +++)”.

“57 (TLYPGRFDYV; listed as Homo sapiens) [compound 57]”: the Peptide exchange result is reported as “++ (≧20% = ++)”.

As for “58 (HLLGEGAFAQV; listed as Homo sapiens) [compound 58]”, the Peptide exchange entry is given as “+++ (≧50 = +++)”.

Take “59 (ALADGIKSFLL; listed as Homo sapiens) [compound 59]”: the Peptide exchange result is “+++ (≧50 = +++)”.

For the substance “60 (YLFSQGLQGL; listed as Homo sapiens) [compound 60]”, the Peptide exchange result is “+++ (≧50 = +++)”.

As for “61 (ALYPKEITL; listed as Homo sapiens) [compound 61]”, the Peptide exchange result is on record as “+++ (≧50 = +++)”.

As for “62 (SLVENIHVL; listed as Homo sapiens) [compound 62]”, the Peptide exchange result was “+++ (≧50 = +++)”.

For “63 (KLLPMVIQL; listed as Homo sapiens) [compound 63]”, the Peptide exchange result is “+++ (≧50 = +++)”.

As to “64 (SLYAGSNNQV; listed as Homo sapiens) [compound 64]”, the Peptide exchange result was “++ (≧20% = ++)”.

For the substance “65 (SLSEKSPEV; listed as Homo sapiens) [compound 65]”, the Peptide exchange result is listed as “++ (≧20% = ++)”.

Turning to “67 (FLIENLLAA; listed as Homo sapiens) [compound 67]”, the Peptide exchange entry is “+++ (≧50 = +++)”.

Consider “68 (QLMNLIRSV; listed as Homo sapiens) [compound 68]”, for which the Peptide exchange entry is “+++ (≧50 = +++)”.

With “69 (LKVLKADVVL; listed as Homo sapiens) [compound 69]”, the Peptide exchange result was “++ (≧20% = ++)”.

As to “70 (GLTEKTVLV; listed as Homo sapiens) [compound 70]”, the Peptide exchange entry is listed as “++ (≧20% = ++)”.

Consider “71 (HMSGKLTNV; listed as Homo sapiens) [compound 71]”, for which the Peptide exchange entry was “++ (≧20% = ++)”.

On to “72 (VLSTRVTNV; listed as Homo sapiens) [compound 72]”, for which the Peptide exchange result is reported as “++ (≧20% = ++)”.

Take “74 (GLAFLPASV; listed as Homo sapiens) [compound 74]”: the Peptide exchange entry is “++ (≧20% = ++)”.

As to “75 (ALLDGALQL; listed as Homo sapiens) [compound 75]”, the Peptide exchange entry is given as “+++ (≧50 = +++)”.

With “76 (FTAEFLEKV; listed as Homo sapiens) [compound 76]”, the Peptide exchange result is given as “+++ (≧50 = +++)”.

For the substance “79 (TVLEEIGNRV; listed as Homo sapiens) [compound 79]”, the Peptide exchange entry is given as “++ (≧20% = ++)”.

Consider “80 (VLTGQVHEL; listed as Homo sapiens) [compound 80]”, for which the Peptide exchange entry was “+++ (≧50 = +++)”.

Regarding “81 (ILAEEPIYI; listed as Homo sapiens) [compound 81]”, the Peptide exchange entry is “++ (≧20% = ++)”.

As for “82 (ILAEEPIYIRV; listed as Homo sapiens) [compound 82]”, the Peptide exchange entry was “+++ (≧50 = +++)”.

Consider “83 (GLLENSPHL; listed as Homo sapiens) [compound 83]”, for which the Peptide exchange result is recorded as “++ (≧20% = ++)”.

In the case of “84 (FLLEREQLL; listed as Homo sapiens) [compound 84]”, the Peptide exchange result was “++++ (≧75% = ++++)”.

As for “85 (KLLDKPEQFL; listed as Homo sapiens) [compound 85]”, the Peptide exchange result is “++ (≧20% = ++)”.

Take “86 (SLFSNIESV; listed as Homo sapiens) [compound 86]”: the Peptide exchange entry is listed as “+++ (≧50 = +++)”.

For the substance “87 (KLLSLLEEA; listed as Homo sapiens) [compound 87]”, the Peptide exchange result is on record as “+++ (≧50 = +++)”.

As for “88 (LLLPLELSLA; listed as Homo sapiens) [compound 88]”, the Peptide exchange entry is recorded as “+++ (≧50 = +++)”.

With “90 (AILNVDEKNQV; listed as Homo sapiens) [compound 90]”, the Peptide exchange entry is “++ (≧20% = ++)”.
